Laboratory results from patent US20150025225A1 (SHIONOGI, published 2015).

Tests used:
Baboon EL-C2 tag [1] = molecular target: T1, Baboon EL-C2 tag (baboon, UniProt Q9Y5X9 21-500 (human entry), limits assumed); test: cell-based or functional assay
T1 chain: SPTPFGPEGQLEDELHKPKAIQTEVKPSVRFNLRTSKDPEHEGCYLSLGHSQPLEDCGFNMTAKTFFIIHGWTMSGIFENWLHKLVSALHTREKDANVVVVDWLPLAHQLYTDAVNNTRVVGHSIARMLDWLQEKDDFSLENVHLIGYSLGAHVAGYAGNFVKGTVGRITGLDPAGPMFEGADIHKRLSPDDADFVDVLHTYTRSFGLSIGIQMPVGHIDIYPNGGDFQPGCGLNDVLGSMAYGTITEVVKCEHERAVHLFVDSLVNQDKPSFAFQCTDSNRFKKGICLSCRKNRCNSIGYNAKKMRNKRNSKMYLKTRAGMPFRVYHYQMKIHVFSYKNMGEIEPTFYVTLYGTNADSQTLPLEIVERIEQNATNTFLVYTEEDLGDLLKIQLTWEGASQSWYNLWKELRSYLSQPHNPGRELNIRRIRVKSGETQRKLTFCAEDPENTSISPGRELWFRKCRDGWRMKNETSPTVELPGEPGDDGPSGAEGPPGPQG

[2] = molecular target: T2, cynomolgus monkey EL-C2 tag (cynomolgus monkey, UniProt Q9Y5X9 21-500 (human entry), limits assumed); test: cell-based or functional assay
T2 chain: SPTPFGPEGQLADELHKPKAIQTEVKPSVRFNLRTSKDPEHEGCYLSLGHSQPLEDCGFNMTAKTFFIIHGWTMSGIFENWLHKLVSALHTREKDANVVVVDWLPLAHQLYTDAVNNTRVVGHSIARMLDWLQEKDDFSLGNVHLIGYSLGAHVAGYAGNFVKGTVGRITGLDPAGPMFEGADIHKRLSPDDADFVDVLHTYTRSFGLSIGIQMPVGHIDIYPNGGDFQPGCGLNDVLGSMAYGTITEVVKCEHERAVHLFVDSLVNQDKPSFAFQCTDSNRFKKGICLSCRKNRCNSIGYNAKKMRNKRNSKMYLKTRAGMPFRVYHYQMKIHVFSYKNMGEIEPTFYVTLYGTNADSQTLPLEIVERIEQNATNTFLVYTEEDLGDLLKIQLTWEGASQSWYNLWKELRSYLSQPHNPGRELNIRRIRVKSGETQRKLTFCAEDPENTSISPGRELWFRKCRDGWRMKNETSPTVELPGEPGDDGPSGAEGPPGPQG

[3] = molecular target: T3, human EL[331-459]-mouse EL-C2 tag (human/mouse chimera, UniProt Q9WVG5 21-500 (mouse entry)); test: cell-based or functional assay
T3 chain: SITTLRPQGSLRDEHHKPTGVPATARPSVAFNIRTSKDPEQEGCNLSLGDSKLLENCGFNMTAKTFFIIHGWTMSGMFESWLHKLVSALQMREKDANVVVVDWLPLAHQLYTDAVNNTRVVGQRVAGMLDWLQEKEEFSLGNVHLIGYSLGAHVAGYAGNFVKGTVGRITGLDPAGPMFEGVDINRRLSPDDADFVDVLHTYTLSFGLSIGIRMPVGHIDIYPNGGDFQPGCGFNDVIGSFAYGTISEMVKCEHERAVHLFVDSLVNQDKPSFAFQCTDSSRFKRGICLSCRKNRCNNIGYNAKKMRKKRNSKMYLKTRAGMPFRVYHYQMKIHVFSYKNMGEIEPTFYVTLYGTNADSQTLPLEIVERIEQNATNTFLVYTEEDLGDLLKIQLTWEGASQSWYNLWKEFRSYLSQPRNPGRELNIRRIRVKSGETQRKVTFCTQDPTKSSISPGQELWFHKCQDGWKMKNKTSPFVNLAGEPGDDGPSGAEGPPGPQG

rabbit EL-C2 tag = molecular target: T4, rabbit EL-C2 tag (rabbit); test: cell-based or functional assay
T4 chain: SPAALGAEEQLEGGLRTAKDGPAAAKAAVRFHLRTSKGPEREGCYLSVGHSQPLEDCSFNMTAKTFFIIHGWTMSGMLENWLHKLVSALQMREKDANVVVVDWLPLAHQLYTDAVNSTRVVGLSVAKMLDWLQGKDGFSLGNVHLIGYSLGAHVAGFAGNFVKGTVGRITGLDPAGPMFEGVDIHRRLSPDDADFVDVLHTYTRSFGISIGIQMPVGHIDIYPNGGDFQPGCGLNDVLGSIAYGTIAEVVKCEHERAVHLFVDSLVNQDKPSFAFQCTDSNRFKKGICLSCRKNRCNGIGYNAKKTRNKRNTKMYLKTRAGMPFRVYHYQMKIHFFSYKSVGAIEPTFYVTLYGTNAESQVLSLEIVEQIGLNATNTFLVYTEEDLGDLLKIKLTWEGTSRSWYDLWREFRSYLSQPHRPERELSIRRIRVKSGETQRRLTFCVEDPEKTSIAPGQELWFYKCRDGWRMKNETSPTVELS

[4] = molecular target: T5, human EL-411-459 fragment (human); test: sandwich ELISA with human EL fragment lysate, as Example 10
T5 construct: Used as HEK293 lysate
T5 chain: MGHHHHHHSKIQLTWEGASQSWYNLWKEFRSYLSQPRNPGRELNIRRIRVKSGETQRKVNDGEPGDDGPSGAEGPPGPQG

[5] = molecular target: T2, cynomolgus monkey EL-C2 tag; test: ELISA-type titration, A450 against antibody concentration; protocol not described in the text
Baboon EL-C2 tag [6] = molecular target: T1, Baboon EL-C2 tag; test: Biacore SPR; EL heparin extract captured by anti-C2-tag antibody on CM5, antibody as analyte, bivalent fit
Method: (§1) The binding affinities of anti-EL antibodies were measured using Biacore. Anti-C2-tag antibody was immobilized on a sensor chip CM5 (GE HealthCare) using amine-coupling and baboon EL heparin extract or cynomolgus monkey heparin extract diluted with HBS-P (GE Healthcare) was added and EL were captured on the sensor chip. Then anti-EL antibodies diluted with HBS-P were added and the binding affinities were calculated by bivalent fitting of BIAevaluation software (FIG. 9A-G).

[7] = molecular target: T2, cynomolgus monkey EL-C2 tag; test: as above
Method: as §1

Baboon EL-C2 tag [8] = molecular target: T1, Baboon EL-C2 tag; test: Biacore SPR; EL captured by anti-C2-tag antibody, antibody as analyte, bivalent fit; column head prints nM, kd/ka gives M
Method: as §1

[9] = molecular target: T2, cynomolgus monkey EL-C2 tag; test: as above
Method: as §1

B1: 41H8 antibody (antibody, IgG1, V domains shown)
VH: QVTLKESGPGILQPSQTLSLTCSFSGFSLSTYGMGVGWIRQPSGKGLEWLAHIWWNENKYYNTDLKSRLTISKDTSNNQVFLKIASVDTADTATYYCARIGPGVPFDYWGQGTTITVSS
VL: DIQMTQSPSSLSASLGGKVTITCKASQDINKFIAWYQHKPGKGPRLLIHYTSTLQPGIPSRFNGSGSGRDYSFTISNLEPEDIATYYCLQYDILTWTFGGGTKLEIK
Baboon EL-C2 tag [1]
  Neutralizing activity_IC50: 7.2 nM
[2]
  Neutralizing activity_IC50: 5.9 nM
[3]
  Neutralizing activity_IC50: 15 nM
Rabbit EL-C2 tag
  Neutralizing activity_IC50: 391 nM
[4]
  binding result: no binding
[5]
  EC50 (read off the curve): ~7 ng/mL
Baboon EL-C2 tag [6]
  koff: 0.00029 s⁻¹
  kon: 110000 M⁻¹ s⁻¹
[7]
  koff: 0.0001 s⁻¹
  kon: 160000 M⁻¹ s⁻¹
Baboon EL-C2 tag [8]
  Kd: 2.6 nM
[9]
  Kd: 0.63 nM
